What was measured:
[1] = biological target: CNNM2 CBS-pair domain (Homo sapiens) (UniProt Q9H8M5); conditions: cited from earlier work
[2] = biological target: CNNM3 CBS-pair domain as a GST fusion (human) (UniProt Q8NE01); experiment: ITC; syringe 160 μM PRL2 or PRL3, cell 16 μM CNNM3 CBS-pair domain as a GST fusion; 22 °C; 30 injections of 10 μl; fitted to a single set of identical sites
[3] = biological target: CNNM3 CBS-pair domain (Homo sapiens) (UniProt Q8NE01); conditions: cited from earlier work
CNNM3 CBS-pair domain (Homo sapiens), sequence (Q8NE01 309-452): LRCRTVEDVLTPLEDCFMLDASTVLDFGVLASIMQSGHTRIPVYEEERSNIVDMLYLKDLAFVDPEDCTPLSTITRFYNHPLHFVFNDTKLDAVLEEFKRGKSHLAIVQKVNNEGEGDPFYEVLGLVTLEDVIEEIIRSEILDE

CNNM3 CBS-pair domain as a GST fusion (human), sequence (Q8NE01 309-452): as above
PRL1, sequence (Q93096 1-170): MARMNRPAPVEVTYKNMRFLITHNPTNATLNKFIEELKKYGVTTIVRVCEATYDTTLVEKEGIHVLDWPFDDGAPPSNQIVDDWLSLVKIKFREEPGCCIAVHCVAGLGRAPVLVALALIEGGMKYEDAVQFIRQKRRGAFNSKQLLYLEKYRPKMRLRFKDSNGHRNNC
PRL2, sequence (Q12974 1-164): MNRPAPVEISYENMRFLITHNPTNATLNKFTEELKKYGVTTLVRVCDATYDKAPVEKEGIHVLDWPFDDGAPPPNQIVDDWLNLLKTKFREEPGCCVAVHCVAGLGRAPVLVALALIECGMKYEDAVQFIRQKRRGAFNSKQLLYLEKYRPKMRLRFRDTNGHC
CNNM2 CBS-pair domain (Homo sapiens), sequence (Q9H8M5 429-584): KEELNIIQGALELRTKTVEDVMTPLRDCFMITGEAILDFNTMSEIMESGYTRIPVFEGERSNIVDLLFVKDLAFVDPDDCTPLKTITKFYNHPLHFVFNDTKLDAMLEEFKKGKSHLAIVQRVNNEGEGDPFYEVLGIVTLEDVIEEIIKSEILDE

PRL1 (from UniProt Q93096)
Kd [1]: 640 nM

PRL2 phosphatase (as used in ITC) (from UniProt Q12974 1-167) (enzyme)
dH [2]: -16.6 kcal/mol | stoichiometry N [2]: 1.02

PRL2 (from UniProt Q12974)
Kd [3]: 25 nM
